Reference: patent US5683904

Target: ubiquitin-methionine-dihydrofolate reductase (mouse) (UniProt P00375)

deubiquitination in vitro (extract of E. coli expressing Yuh1), share of the fusion deubiquitinated: < 50%
Substance: Yuh1 ubiquitin-specific protease (from UniProt P35127) (enzyme)
